Experimental findings from patent publication US20170137509A1 (AFFIRIS, published 2017) are described below.

For one experiment, the target named is T1, full length Opn (flOpn) (human, UniProt P10451 17-314).
T1 construct: Recombinant, expressed in HEK293 c18 cells as 'Strep-314 AA (full length Opn)-6xHis'; ELISA and Western blot also used PeproTech Cat#120-35 as control, and Western lanes 1-4 hold full length Opn proteins with different tag systems; also called Strep-314 AA (full length Opn)-6xHis; full length osteopontin; not shown: N-terminal OneStrep-tag
Briefly: ELISA on plates coated with recombinant human Opn, HRP anti-mouse IgG, OD 405 nm. As to the method: (§1) ELISA plates (Nunc, Cat#439454) were coated with 1 μg/ml recombinant human Opn proteins (home-made or from PeproTech, Cat#120-35 as control) in 100 mM NaHCO3 pH=9,2 and blocked with 1% BSA in 1×PBS. Bound mouse anti-human monoclonal antibodies (BioGenes, 1 μg/ml) and the mouse serum used as positive control were detected using a HRP-conjugated goat anti-mouse IgG antibody ([…], Cat#115-035-068, 0.2 μg/ml). ABTS (0.68 mM ABTS in 0.1 M citric acid, pH=4.3) and 0.1% hydrogen peroxide was used as a substrate for the horse radish peroxidase (HRP). The substrate reaction was stopped by adding 1% SDS solution to the wells. The absorbance was read at 405 nm using a microplate reader (TECAN Sunrise).
(In general: ELISA stands for enzyme-linked immunosorbent assay.)

Experiment [1] addresses T2, matrix-metalloproteinase-truncated Opn (MmpOpn) (human, UniProt P10451 17-166, limits assumed).
T2 construct: Recombinant, expressed in HEK293 c18 cells; stop codon after 166 AA; also called 1-Opn-166; 6xHis-166 AA (N-terminal MMP-cleaved Opn)
Described as above. As to the method: as §1

The target in experiment [2] is T3, biotinylated peptide ligand representing ThrOpn (SPR). Briefly: SPR (Biacore 2000), biotinylated peptide on streptavidin chip, mAb injected at 2 ug/ml. On the procedure: (§2) Binding analyses were performed on a Biacore 2000. The different biotinylated peptide ligands representing the different Opn products were immobilized on a streptavidin chip in one flow cell respectively, with a flow rate of 30 μl/min. The fourth flow cell is a reference cell without peptide. The peptides were dissolved in a DMSO solution and further diluted in HBS buffer (0.01M Hepes, 0.1M NaCl, 0.004M EDTA, 0.05% P20, pH=7.4). After immobilization, the chips in each flow cell were saturated with 1 μM D-Biotin. As a control, an unspecific serum was injected through all cells. The flow rate of the antibodies was 30 μl/min at a concentration of 2 μg/ml, volume injected 100 μl. The dissociation time was set at 500 sec. The chips were regenerated with 60 μl of 50 mM HCl. Off-rate values and KD values were calculated using the Biocore SPR software.
(§3) In order to define the binding strength of selected mAbs against their individual targets SPR analysis was performed using peptides representing the different Opn products. […] Thus in a situation where multiple washing steps are included (e.g. in the used functional cell based adhesion assay) the antibody will be washed away from its target. […] In a more physiological situation where antibody persistence is not influenced by steps depleting the antibody, mAb 4-4-2 is expected also display functional activity.
For orientation: Surface plasmon resonance follows binding to a sensor surface in real time, without labels.

For experiment [3], the target named is T4, biotinylated peptide ligand representing MmpOpn (SPR). Briefly: SPR (Biacore 2000), biotinylated peptide on streptavidin chip, mAb injected at 2 ug/ml; one value printed for 'ThrOpn and MmpOpn'.
For experiment [4], the target named is T3, biotinylated peptide ligand …. The description is as above.
Experiment [5] deals with T4, biotinylated peptide ligand …. Briefly: SPR (Biacore 2000), biotinylated peptide on streptavidin chip, mAb injected at 2 ug/ml. On the procedure: as §2, §3

T1 sequence (P10451 other isoform, or with tags, fused parts or gaps): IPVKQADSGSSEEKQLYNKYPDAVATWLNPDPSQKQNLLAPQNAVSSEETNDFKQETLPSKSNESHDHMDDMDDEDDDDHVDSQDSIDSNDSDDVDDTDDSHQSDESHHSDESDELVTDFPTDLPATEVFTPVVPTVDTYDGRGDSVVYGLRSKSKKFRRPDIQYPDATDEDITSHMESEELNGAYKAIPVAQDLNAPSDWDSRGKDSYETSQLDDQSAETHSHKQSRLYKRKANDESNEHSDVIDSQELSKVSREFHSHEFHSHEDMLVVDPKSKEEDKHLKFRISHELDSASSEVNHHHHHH
T2 sequence (P10451 other isoform, or with tags, fused parts or gaps limits assumed): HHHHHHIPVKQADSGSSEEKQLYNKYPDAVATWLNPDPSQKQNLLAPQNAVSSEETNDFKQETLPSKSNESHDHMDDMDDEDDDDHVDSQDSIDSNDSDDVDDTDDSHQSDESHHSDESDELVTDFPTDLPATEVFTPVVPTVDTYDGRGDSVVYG

B1: mAb 4-4-2 (antibody, V domains shown)
VH: QVTLKESGPGILQPSQTLSLTCSFSGFSLSTYGLGVSWIRQPSGKGLEWLAHIYWDDNKRYKSSLKSRLTISKDTSSNQVFLKITSVDTADTATYYCARGTSPGVSFPYWGQGTLVTVSA
VL: DIQMTQSPASLSASVGETVTITCRASENIYSYLAWYQQKQGKSPQFLVYNAKTLAEGVPSRFSGSGSGTQFSLKINSLQPEDFGSYYCQHHYGTPLTFGAGTKLELKR
notes: also called Monoclonal Ab 4-4-2
In general, Kd refers to a measure of binding affinity in units of concentration. Read a low Kd as tighter binding. As a reminder, the koff is the first-order rate constant of dissociation. A higher koff goes with fast dissociation. Turning to B1, the binding result (in the experiment with full length Opn (flOpn); in experiment [1]) was “no binding (tested: 1,00 µg/ml)” each time. In experiment [2], this molecule returned a Kd of 13900 pM. In experiment [2], this molecule showed a koff of 0.00279 s⁻¹.

B2: mAb 21-5-4 (antibody, V domains shown)
VH: QVTLKESGPGMLKPSQTLSLTCSFSGFSLSTSGLGIGWIRQPSGKGLEWLAHISWDDSKYYNPSLKNRLTISKDTSRNQVFLKITNVGTADSATYFCARSGGGDSDWGQGTLVTVSA
VL: ANVLTQSPAIMSASPGEKVTMTCSANSSVNSIHWYQQKSSTSPKLWIYDTSKLASGVPGRFSGSGSGDSYSLTISSMEAEDVATYYCFQGSGYPLTFGGGTKLEIKR
notes: also called 21-5-4 mAb; Monoclonal Ab 21-5-4
In experiment [3], B2 displayed a Kd of 840 pM and a dissociation rate constant (koff) of 1e-05 s⁻¹. In experiment [4], this molecule had a Kd of 840 pM and an off-rate (koff) of 1e-05 s⁻¹.

B3: mAb 7-5-4 (antibody, V domains shown)
VH: EVQLVETGGGLVQPKGALRLSCAVSGITFNTNGMNWVRQAPGRGLEWVARVRSKDYNFATYYADSVKDRFTISRDDSQSMLYLQMNNLRTEDTAMYYCVRPDYYGSSFAYWGQGTLVSVSA
VL: DVLMTQTPLSLPVSLGDQASISCRSSQSIVHSNGNTYLEWYLQKPGQSPKLLIYKVSNRFFGVPDRFSGSGSGTDFTLKISRVEAEDLGVYYCFQGSHVPWTFGGGTKLEIKR
notes: also called Monoclonal Ab 7-5-4
Consider B3, for which the binding result with full length Opn (flOpn) is recorded as “no binding (tested: 1,00 µg/ml)”. In experiment [5], this molecule came in with a Kd of 1120 pM and a koff of 8.89e-05 s⁻¹.

B4: mAb 9-3-1 (antibody, IgG1, V domains shown)
VH: B3 VH
VL: B3 VL
notes: tested as a separate clone; also called mAb CMI 9-3
Take B4: in the experiment with full length Opn (flOpn), the binding result is recorded as “no binding (tested: 1,00 µg/ml)”. In experiment [5], this molecule returned a dissociation constant Kd of 970 pM and a koff of 8.79e-05 s⁻¹.
